Assay: yeast display, Sf9 membrane polyspecificity reagent, FACS + sequencing; frameworks hold sequencing errors
Summary of the method: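 Polyreactivity labels are assigned by the sorting gate from which each nanobody was recovered. The gates were low and high (top ~1%), set on anti-HA fluorescence for expression and streptavidin fluorescence for reagent binding. Before sorting, galactose-induced (36–48 hours) yeast display cells were stained for 1 hour at 4 °C with 10% biotinylated, detergent-solubilized Sf9 membrane reagent.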

| Sequence | polyreactivity (PSR sort gate) |
| --- | --- |
| QVQLVESGGGLVQAGGSLRLSCAASGRTFADYAMGWYRQAPGKERELVATIRKSTGTTYYADSVKGRFTISRDNAKNTVYLQMNSLKPEDTAVYYCAAARSRYSRWRVEYWGQGTQVTVSS | high polyreactivity |
| QVQLVESGGGLVQAGGSLRLSCAASGRTFAENAMGWYRQAPGKESELVAAISETGSRTYYADSVKGRFTISRDNAKNTVYLQMNSLKPEDTAVYYCAARSWHGVLWSYRHDYWGQGTQVTVSS | low polyreactivity |
| QVQLVESGGGLVQAGGSLRLSCAASGRTFAFNAMGWYRQAPGKERELVATISWSGGSTYYADSVKGRFTISRDNAKNTVYLQMNSLKPEDTAVYYCGAEYVVYRYRLYGTVAYDYWGQGTQVTVSS | high polyreactivity |
| QVQLVESGGGLVQAGGSLRLSCAASGRTFAFYAMGWYRPAPGKERELVASIRGGGGTNYADSVKGRFTISRDNAKNPVYLQMNSVKPEDTAVYYCAARGYGYRGYYYWGQGTQVTVSS | high polyreactivity |
| QVQLVESGGGLVQAGGSLRLSCAASGRTFAFYTMGWYRQAPGKEREFVAAISWSGGSTHYADSVKGRFTISRDNAKNTVYLQMNSLKQEDSAVYYCAAGPFYRFTDGRYKTLDYWGQGTQVTVSS | high polyreactivity |
| QVQLVESGGGLVQAGGSLRLSCAASGRTFAGNAMGWYRQAPGKERELVAAIRRTGGRTYYADSVKGRFTISRDNAKNTVYLQMNSLKPEDTAVYYCNAVNKPYTREYGYDYWGQGTQVTVSS | high polyreactivity |
| QVQLVESGGGLVQAGGSLRLSCAASGRTFAGNAMGWYRQAPGKERELVAAISWSGGRTYYADSVKGRFTISRDNAKNTVYLQMNSLKPEETAVYYCAAVRASSRFRYGYWGQGTQVTVSS | high polyreactivity |
| QVQLVESGGGLVQAGGSLRLSCAASGRTFALNALGWSRQAPGKERELVAAISWSSGRTYYADSVKGRFTISRDNAKNTVYLQMNSLKPEDTAVYYCAALVAHKGDYWGQGTQVTVSS | high polyreactivity |
| QVQLVESGGGLVQAGGSLRLSCAASGRTFALYAMGWYRQAPGKERELVAAITSGGSTNYADSVKGRFTISRDNAKNTVYVQMNSLKPEDTAVYYCNADDSSKDVIGLDYWGQGTQVTVSS | low polyreactivity |
| QVQLVESGGGLVQAGGSLRLSCAASGRTFANNAMGWYRQAPGKERELVAAISNGDSTYADSVKGRFTISRDNAKNTVYLQMNSLKPEDTAVYYWATRTKEDYTGDYWGQGTQVTVSS | low polyreactivity |
| QVQLVESGGGLVQAGGSLRLSCAASGRTFAPNAMGRSRQAPGKERELVAAITSIGTRTYYADSVKGRFTISRDNAKNTVYLHKNSLKTEVTAVYYCNKKRNADYDYWGQGTQVTVSS | low polyreactivity |
| QVQLVESGGGLVQAGGSLRLSCAASGRTFAPYALGWYRQAPRKERELVAAITNGGSTSYADSVKGRFTISRDNAKNTVYLQMNSLKPEDTAVYYCAADANRYHRQRWSPYKMYYWGQGTQVTVSS | low polyreactivity |
| QVQLVESGGGLVQAGGSLRLSCAASGRTFAPYAMGWYRQAPGKERELVAAISQRGGSTYYADSVKGRFTISRDNAKNTVYLQMNSLKPEDTAIYYCAATKYFYRLSSAFSFGTYGYWGQGTQVTVSS | low polyreactivity |
| QVQLVESGGGLVQAGGSLRLSCAASGRTFAPYAMGWYRQAPGKERELVAGITYRTGNTYYADSVKGRFTISRDNAKNTVYLQMNTLKPEDTGVYYCAAYSGYYRPRYNYWGQGTQVTVSS | high polyreactivity |
| QVQLVESGGGLVQAGGSLRLSCAASGRTFAPYVMGWYRQAPGKERELVAAITWSGGSTYYADSVKGRFTISRDNAKKTVYLQMNSLKPEDTAVYYCAVKGAGGPKYDYWGQGTQVTVSS | high polyreactivity |
| QVQLVESGGGLVQAGGSLRLSCAASGRTFARYAMGRYRQAPGKERELVAAITRGSGSTYYADSVKGRFTISRDNAKNTVYLQMNSLKTEDTAVYFCAKRSRGLKFDYWGQGTQVTVSS | high polyreactivity |
| QVQLVESGGGLVQAGGSLRLSCAASGRTFARYAMGWYRQAPGKERELVASNRRGTSTNYADSVKGRFTISRDNAKNTVYLQMNSLKPEDTAVYYCAARVGTQGDHGDYWGQGTQVTVSS | high polyreactivity |
| QVQLVESGGGLVQAGGSLRLSCAASGRTFASNAMGCYRQAPGKERELVAAITISGGRTYYADSVKGRFTISRDNAKNTVYLQMNSLKPEDTAVYYRAAAKHSWRPSYYWGGYWGQGTQVTVSS | low polyreactivity |
| QVQLVESGGGLVQAGGSLRLSCAASGRTFASYAMGWNRQPPGKERELFARISKSGGSTYYADSVKGRFTISRDNAKNTVYLQMNSLKPEDTAVYYCAAEYPFEIGYVYYSIDYDYWRQGTQVTVSS | low polyreactivity |
| QVQLVESGGGLVQAGGSLRLSCAASGRTFASYAMGWYRQAPGKERELVAGITSGGNTYYADSVKGRFTISRDNAKNTVYLQMNSLKPEDTAVFYCAADGVYKGWPTHYDYWGHGTQVTVSS | high polyreactivity |
| QVQLVESGGGLVQAGGSLRLSCAASGRTFASYAMGWYRQAPGKERQLVAAITRGGNTNYADSVKGRFTISRDNAKNTVYLQMNSLNPEDTAVYYCATEGFVYSWLWEFEYWGQGTQVTVSS | low polyreactivity |
| QVQLVESGGGLVQAGGSLRLSCAASGRTFATNAMGWYRQAPGKERELVAAISRRGASTYYADSVKGRFTISRDNAKNTVYLQMNSLKPEDTAVYYCAARQYIRGARIYDYWGQGTQVTVSS | high polyreactivity |

| Sequence | polyreactivity (PSR sort gate) |
| --- | --- |
| QVQLVESGGGLVQAGGSLRLSCAASGRTFATYAMGWYRQAPGKERELVAAISNSGGRTNYADSVKGRFTISRDNAKNTVYLQMNSLKPEDTAVYYCAAAKRYYSEMYWGQGTQVTVSS | high polyreactivity |
| QVQLVESGGGLVQAGGSLRLSCAASGRTFATYTMGWYRQAPGQERELVAAITRGGGSTFYADSVQGRFTITRDHAKNPVYLQMNSLKPEDTAVYYFAARIPGSFKSGYWGQGTQVTVSS | high polyreactivity |
| QVQLVESGGGLVQAGGSLRLSCAASGRTFAVYAMGWYRQAPGKERELVAAISRRGGSTYYADSVKGRFTISRDNAKNTVYLQMNSLKPEDTAVYYCATDNSQSTYPYDYWGQGTQVTVSS | high polyreactivity |
| QVQLVESGGGLVQAGGSLRLSCAASGRTFAYNAMGWYRQAPGKERELVAAIRWSADSTYYADSVKGRFTISRDNAKNTVYLQMNSLKPEDTAVYYCARRRYVGAFSVATLDYWGQGTQVTVSS | high polyreactivity |
| QVQLVESGGGLVQAGGSLRLSCAASGRTFAYNAMGWYRQAPGKERELVAAITRRGGSTYYADSVKGRFTISRDNAKITVYLQMNSLKPEDTAVYYCDARWVTTVQGDGRYDYWGQGTQVTVSS | low polyreactivity |
| QVQLVESGGGLVQAGGSLRLSCAASGRTFAYNTMGWYRQAPGKERELVAVISSGGRTYYADSGKGRFTMSRDNAKNTVYLQMNSLKPEDTAVYYCAADGYPYKYDYWGQGTQVTVSS | high polyreactivity |
| QVQLVESGGGLVQAGGSLRLSCAASGRTFAYYAMGWYRQAPGKERELVAAIDSSGGDTYYADSVKGRFTISRDNAKNTVYLQMNSLKPEDTAVYYCAADYYWEMDSWGQGTQVTVSS | low polyreactivity |
| QVQLVESGGGLVQAGGSLRLSCAASGRTFAYYAMGWYRQAPGKERELVAAISSGGGSTYYADSVKGRFTISRDNAKNTVYLQMNRLKPEDTSVYYCNKGFEFWGQGTQVTVSS | high polyreactivity |
| QVQLVESGGGLVQAGGSLRLSCAASGRTFAYYAMGWYRQAPGKERELVAAITQSGGRTYYADSVKGRFTISRDNAKNTVYLQMNSLKPEDTAVYYCAARRISGKWEYDYWGQGTQVTVSS | high polyreactivity |
| QVQLVESGGGLVQAGGSLRLSCAASGRTFAYYAMGWYRQAPGTERELVAAISYSGARTYYADSVKGRFTISRDNAKNTVYLQMNSLKPEDTAVYYCAKSRGYPYTDYNYWGQGTQVTVSS | high polyreactivity |
| QVQLVESGGGLVQAGGSLRLSCAASGRTFAYYTMGWYRQAPGKERELVAAISWIGGSTYYADSVKGRFTISRDNAKNTVYLQMNSLKPEDTAVYYCNAVGLHWWPGDYWGQGTQVTVSS | low polyreactivity |
| QVQLVESGGGLVQAGGSLRLSCAASGRTFAYYTMGWYRQAPGKERELVARISGYGGSTYYADSVKGRFTLSRDNAKNTVYLQMNSLKPEDTAVYYCNVVGAYYRYDYWGQGTQVTVSS | high polyreactivity |
| QVQLVESGGGLVQAGGSLRLSCAASGRTFCSNAMGWYRQAPGKERELVARISWSGGSTYYADSVKGRFTISRDNAKNTVYLQMNSLKPEVTAVYYCAKYYPGRSAFSEGTYWGQGTQVTVSS | low polyreactivity |
| QVQLVESGGGLVQAGGSLRLSCAASGRTFCSYTKAWYRQAPGKERELVAAISSGGSTTYADSVKGRFTISRDNAKNTVYLQLNSLKPEDTAVYYCATRAVWSSWGRRYDPWGQGTQVTVSS | high polyreactivity |
| QVQLVESGGGLVQAGGSLRLSCAASGRTFCVYVMGWYRQAPGKERQLVAAIDDSGGSTYYADSVKGRFTISRDNAKNTVYLQMNSLKPEDTAVYYCAKTKTQYLTSEIRFDYWGQGTQVTVSS | low polyreactivity |
| QVQLVESGGGLVQAGGSLRLSCAASGRTFDEYPMGWYRQAPGKERELVAAISTRGGSTYYADSVKGRFSISRDNAKNTVYLQMNSLKPEDTAVYYCAKAYYPYRYFSVYSDLESWGQGTQVTVSS | high polyreactivity |
| QVQLVESGGGLVQAGGSLRLSCAASGRTFDFYAMGWYRQAPGKERELVAGITSGDSTHYADSVKGRFTISRDNAKNTVYLQMNSLKPEDTAVYYCAADITWYDYAGSHIVEHDYWGQGTQVTVSS | low polyreactivity |
| QVQLVESGGGLVQAGGSLRLSCAASGRTFDGYTMGWYRQAPGKERELVAAISGGGGSTYYADSVKGRFTISRDNAKNTVYLQLNSLKPEDTAVYYCNKVVRQHGGLYNYWGQGTQVTVSS | low polyreactivity |
| QVQLVESGGGLVQAGGSLRLSCAASGRTFDHNAMGWYRQAPGKERELVAAITWSGGITDYADSVKRPFTISRDNAKNTVYLQMNSLKPEDTAVCGQGTQVTVSS | low polyreactivity |
| QVQLVESGGGLVQAGGSLRLSCAASGRTFDHYAMGWYIQAPGKERELVAAISNSDGSTNYADSVKGRFTISRDNAMNTVYLQMNSLKPEDTAVYYCNKLYRGGWYDYWGLGTQVTVSS | low polyreactivity |
| QVQLVESGGGLVQAGGSLRLSCAASGRTFDIYAMGWYRQAPGKERELVAAINRSAGDTYYADSVKGGFTISRDNAKNTVYLQMNSLKPEDTAVYYCNAERVPYVPWLLYTEYVNYVYWGQGTQLTVSS | high polyreactivity |

Reference: the nanobody polyreactivity screen of Harvey et al. (2022)
